Consider eight molecules from US20260191981A1 (ARROWHEAD PHARMACEUTICALS, published 2026).

The target of assay [1] is T1, human transferrin receptor 1 (hTfR1) (human, UniProt P02786 89-760, limits assumed).
T1 construct: The selections used the biotinylated ECD domain of hTfR1
Nature of the assay: competition phage ELISA (phage-displayed Fab). On the technique in general: ELISA stands for enzyme-linked immunosorbent assay.

The target in assay [2] is T2, his-tagged hTfR1 (Acro Biosystems p/n CD1-H5243) (human, UniProt P02786 89-760).
T2 construct: Bought reagent of the SPR assay
T2 sequence (P02786 89-760 limits assumed): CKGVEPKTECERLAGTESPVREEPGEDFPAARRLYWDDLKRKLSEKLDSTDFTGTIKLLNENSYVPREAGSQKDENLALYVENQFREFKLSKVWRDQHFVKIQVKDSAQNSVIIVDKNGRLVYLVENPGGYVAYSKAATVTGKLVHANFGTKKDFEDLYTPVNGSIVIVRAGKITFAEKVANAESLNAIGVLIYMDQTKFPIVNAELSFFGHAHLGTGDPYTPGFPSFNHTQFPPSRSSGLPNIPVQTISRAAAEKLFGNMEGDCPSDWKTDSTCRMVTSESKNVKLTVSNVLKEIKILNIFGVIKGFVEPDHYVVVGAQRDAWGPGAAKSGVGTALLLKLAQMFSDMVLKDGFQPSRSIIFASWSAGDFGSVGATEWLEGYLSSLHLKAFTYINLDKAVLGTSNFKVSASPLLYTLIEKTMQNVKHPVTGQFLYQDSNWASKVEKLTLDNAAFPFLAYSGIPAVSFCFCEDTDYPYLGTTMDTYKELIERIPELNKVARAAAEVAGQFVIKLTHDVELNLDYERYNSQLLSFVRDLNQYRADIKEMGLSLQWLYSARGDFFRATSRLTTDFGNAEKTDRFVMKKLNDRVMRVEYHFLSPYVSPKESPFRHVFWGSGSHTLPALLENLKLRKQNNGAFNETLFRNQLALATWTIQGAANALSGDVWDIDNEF
The assay is described as follows: SPR, Biacore X100, His-tagged TfR1 captured by anti-His. The method, then:
Samples were analyzed via Surface Plasmon Resonance (SPR) to determine kinetics against human transferrin receptor 1 (hTfR1). Briefly, a Biacore X100 (Cytiva) was used for SPR measurements using a CM5 chip (carboxymethylated dextran surface, Cytiva p/n BR100399) with anti-histidine antibody irreversibly immobilized on the surface of both flow cells for the reversible capture of his-tagged hTfR1 (Acro Biosystems p/n CD1-H5243). The anti-histidine antibody was irreversibly immobilized via amine coupling using Cytiva provided Amine Coupling Kit (p/n BR100050) and His Capture Kit (p/n 28995056). […] Sample diluent was prepared in house and is composed of 10 mM HEPES buffer pH 7.4, 150 mM NaCl, 3 mM EDTA, and 0.05% Tween 20. Cytiva caps and vials compatible for Biacore X100 are used for sample analysis. Each analysis cycle consists of a capture step followed by sample or blank injection, and finally a regeneration step that removes any sample and hTfR1 on the sensor surface. The capture step was performed at 5 μL/min with a contact time of 24 seconds over the active flow cell only, followed by a fluidics wash with 0.1% Tween 20. Generally, 2 μg/mL hTfR1 is a sufficient concentration to observe adequate hTfR1 captured consistently between cycles. Sample or buffer was injected at 30 μL/min with a contact time of 180 seconds and a dissociation time of 180 seconds followed by a fluidics wash with 0.1% Tween 20. A 10 mM glycine solution at pH 1.5 (provided in His Capture Kit) was used for regeneration at 30 μL/min with a 60 second contact time. A cycle was performed for each sample concentration analyzed along with one cycle repeating one concentration for variability evaluation and 2-3 buffer cycles. Results were analyzed in Biacore Evaluation Software. Buffer cycles were averaged and subtracted from sample injections prior to kinetic fitting. A monovalent or kinetic fit was specified as relevant for the sample analyzed. Accuracy of the fit was evaluated and data points are excluded as applicable. […]

The target in assay [3] is T1, human transferrin receptor 1 (hTfR1). The assay is described as follows: competition ELISA, Fab.
The target in assay [4] is T3, cynomolgus monkey transferrin receptor 1 (cTfR1) (cynomolgus monkey, UniProt H9EXL1 89-760 (rhesus entry)).
T3 construct: The ELISA against cTfR1 is not described in the text
T3 sequence (chain, as listed by the source): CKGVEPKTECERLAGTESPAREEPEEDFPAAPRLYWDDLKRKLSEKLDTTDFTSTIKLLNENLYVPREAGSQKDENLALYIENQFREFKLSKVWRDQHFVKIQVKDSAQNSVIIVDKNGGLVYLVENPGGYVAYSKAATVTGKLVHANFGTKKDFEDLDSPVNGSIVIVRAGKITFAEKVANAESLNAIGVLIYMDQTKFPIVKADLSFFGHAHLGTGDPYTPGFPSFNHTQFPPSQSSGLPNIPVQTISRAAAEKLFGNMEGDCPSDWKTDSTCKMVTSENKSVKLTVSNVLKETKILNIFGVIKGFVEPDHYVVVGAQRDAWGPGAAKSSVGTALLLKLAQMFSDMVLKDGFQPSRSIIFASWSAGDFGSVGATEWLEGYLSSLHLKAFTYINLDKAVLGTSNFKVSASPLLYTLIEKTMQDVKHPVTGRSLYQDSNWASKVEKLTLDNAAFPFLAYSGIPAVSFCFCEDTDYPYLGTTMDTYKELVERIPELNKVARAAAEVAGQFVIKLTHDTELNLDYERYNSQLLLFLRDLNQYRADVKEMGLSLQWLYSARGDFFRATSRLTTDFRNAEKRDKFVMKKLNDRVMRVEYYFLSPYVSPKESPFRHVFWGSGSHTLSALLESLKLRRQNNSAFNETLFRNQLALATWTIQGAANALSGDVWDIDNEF
The assay is described as follows: competition phage ELISA (phage-displayed Fab).

Assay [5] has as its target T4, his-tagged cTfR1 (Acro Biosystems p/n TFR-C524a) (cynomolgus monkey, UniProt H9EXL1 89-760 (rhesus entry)).
T4 construct: Bought reagent of the SPR assay
Nature of the assay: SPR, Biacore X100, His-tagged TfR1 captured by anti-His. How it is done: Samples were analyzed via Surface Plasmon Resonance (SPR) to determine kinetics against cynomolgus monkey transferrin receptor 1 (cTfR1). Briefly, a Biacore X100 (Cytiva) was used for SPR measurements using a CM5 chip (carboxymethylated dextran surface, Cytiva p/n BR100399) with anti-histidine antibody irreversibly immobilized on the surface of both flow cells for the reversible capture of his-tagged cTfR1 (Acro Biosystems p/n TFR-C524a). The anti-histidine antibody was irreversibly immobilized via amine coupling using Cytiva provided Amine Coupling Kit (p/n BR100050) and His Capture Kit (p/n 28995056). […] Sample diluent was prepared in house and is composed of 10 mM HEPES buffer pH 7.4, 150 mM NaCl, 3 mM EDTA, and 0.05% Tween 20. Cytiva caps and vials compatible for Biacore X₁₀₀ were used for sample analysis. Each analysis cycle consists of a capture step followed by sample or blank injection, and finally a regeneration step that removes any sample and cTfR1 on the sensor surface. The capture step was performed at 5 μL/min with a contact time of 24 seconds over the active flow cell only, followed by a fluidics wash with 0.1% Tween 20. Generally, 2 μg/mL hTfR1 was a sufficient concentration to observe adequate hTfR1 captured consistently between cycles. Sample or buffer was injected at 30 μL/min with a contact time of 180 seconds and dissociation time of 180 seconds followed by a fluidics wash with 0.1% Tween 20. A 10 mM glycine solution at pH 1.5 (provided in His Capture Kit) was used for regeneration at 30 μL/min with a 60 second contact time. A cycle was performed for each sample concentration analyzed along with one cycle repeating one concentration for variability evaluation and 2-3 buffer cycles. Results were analyzed in Biacore Evaluation Software. Buffer cycles were averaged and subtracted from sample injections prior to kinetic fitting. A monovalent or kinetic fit was specified as relevant for the sample analyzed. Accuracy of the fit is evaluated and data points are excluded as applicable.
In general terms: SPR reads the build-up and loss of mass on a sensor chip optically.

In assay [6] the target is T3, cynomolgus monkey transferrin receptor …. The assay is described as follows: competition ELISA, Fab.

Usually Kd stands for the constant that tells how readily two partners part at equilibrium. In general, koff refers to a measure of how fast the partners let go of each other. In general, kon refers to a measure of how fast the partners come together.

T1 sequence (P02786 89-760 limits assumed): as the sequence (P02786 89-760 limits assumed) above
T4 sequence (chain, as listed by the source): as the sequence (chain, as listed by the source) above

B1: Fab0068 (Fab, V domains shown)
VH: EVQLVESGGGLVQPGGSLRLSCATSGYTFTSYWVHWVRQAPGKGLEWVAEINPTNGRVNYIEKFKSRITLSVDKSKSTVYLQMNSLRAEDTAVYYCARGTRAYHYWGQGTLVTVSS
VL: DIQLTQSPSSLSASVGDRVTITCRASDGLYSNLAWYQQKPGKAPKLLIYDATKLASGVPSRFSGSGSGTDYTLTISSLQPEDFATYYCQHFWGTPLTFGQGTKVEIKR
With B1, the Kd stood at 0.43 nM in assay [1]; 0.97 nM in assay [2]; 0.84 nM in assay [3]; 1.75 nM in assay [4]; 2.34 nM in assay [5]; 7.37 nM in assay [6]. Moreover, the koff in assay [2] stood at 0.00113 s⁻¹; in assay [5], 0.00366 s⁻¹. The kon in assay [2] turned out to be 1.17e+06 M⁻¹ s⁻¹; in assay [5] it was 1.57e+06 M⁻¹ s⁻¹.

B2: Fab0002 (Fab, V domains shown)
VH: EVQLVQSGAEVKKPGASVKVSCKASGYTFTSYWMHWVRQAPGQRLEWIGEINPTNGRTNYIEKFKSRATLTVDKSASTAYMELSSLRSEDTAVYYCARGTRAYHYWGQGTMVTVSS
VL: DIQMTQSPSSLSASVGDRVTITCRASDNLYSNLAWYQQKPGKSPKLLVYDATNLADGVPSRFSGSGSGTDYTLTISSLQPEDFATYYCQHFWGTPLTFGQGTKVEIKR
Regarding B2, the Kd in assay [1] was 2.8 nM; in assay [2], 7.68 nM; in assay [3] it was 7.28 nM; in assay [4], 0.96 nM; in assay [5], 25.2 nM; in assay [6], 33.8 nM. Moreover, the koff in assay [2] turned out to be 0.00499 s⁻¹; in assay [5] it was 0.0155 s⁻¹. Moreover, the results for the kon in assay [2] and in assay [5] were 649000 M⁻¹ s⁻¹ and 614000 M⁻¹ s⁻¹, respectively.

B3: Fab0070 (Fab, V domains shown)
VH: EVQLVESGGGLVQPGGSLRLSCATSGFTFTSYWMHWVRQAPGKGLEWVAEINPTNGRTNYIEKFKSRITLSVDKSKSTVYLQMNSLRAEDTAVYYCARGTRAYHYWGQGTLVTVSS
VL: DIQLTQSPSSLSASVGDRVTITCRASDKLYSNLAWYQQKPGKAPKLLIYDATLLASGVPSRFSGSGSGTDYTLTISSLQPEDFATYYCQHFWGTPLTFGQGTKVEIKR
For the molecule B3, the Kd in assay [1] is 0.49 nM; in assay [2], 0.923 nM; in assay [3], 1.11 nM; in assay [4], 1.39 nM; in assay [5], 4.52 nM; in assay [6] it was 15.3 nM. Also, the koff was 0.0012 s⁻¹ in assay [2] and 0.00582 s⁻¹ in assay [5]. The kon in assay [2] turned out to be 1.3e+06 M⁻¹ s⁻¹; in assay [5], 1.29e+06 M⁻¹ s⁻¹.

B4: Fab0072 (Fab, V domains shown)
VH: EVQLVESGGGLVQPGGSLRLSCATSGYTFNSYWMHWVRQAPGKGLEWVAEINPTNGRFNYIEKFKSRITLSVDKSKSTVYLQMNSLRAEDTAVYYCARGTRAYHYWGQGTLVTVSS
VL: DIQLTQSPSSLSASVGDRVTITCRASDNLYRNLAWYQQKPGKAPKLLIYDARNLASGVPSRFSGSGSGTDYTLTISSLQPEDFATYYCQHFWGTPLTFGQGTKVEIKR
With B4, the Kd in assay [1] turned out to be 0.19 nM; in assay [2], 0.331 nM; in assay [3], 0.19 nM; in assay [4], 1.18 nM; in assay [5], 3.88 nM; in assay [6], 11.9 nM. For the same molecule, the koff amounted to 0.000614 s⁻¹ in assay [2] and 0.0108 s⁻¹ in assay [5]. Besides, the kon was found to be 1.86e+06 M⁻¹ s⁻¹ in assay [2] and 2.78e+06 M⁻¹ s⁻¹ in assay [5].

B5: Fab0069 (Fab, V domains shown)
VH: EVQLVESGGGLVQPGGSLRLSCATSGYTFTSYWVHWVRQAPGKGLEWVAEINPTNGRSNYIEKFKSRITLSVDKSKSTVYLQMNSLRAEDTAVYYCARGTRAYHYWGQGTLVTVSS
VL: DIQLTQSPSSLSASVGDRVTITCRASDGLYSNLAWYQQKPGKAPKLLIYDATKLASGVPSRFSGSGSGTDYTLTISSLQPEDFATYYCQHFWGTPLTFGQGTKVEIKR
Regarding B5, the Kd in assay [1] came out at 0.35 nM; in assay [2], 0.783 nM; in assay [3], 0.75 nM; in assay [4] it was 1.29 nM; in assay [5], 2.72 nM; in assay [6], 4.68 nM. The koff in assay [2] is 0.00108 s⁻¹; in assay [5] it was 0.00375 s⁻¹. Further, the kon in assay [2] and in assay [5] was 1.38e+06 M⁻¹ s⁻¹ in each case.

B6: Fab0073 (Fab, V domains shown)
VH: EVQLVESGGGLVQPGGSLRLSCATSGYTFKSYWMHWVRQAPGKGLEWVAEINPTNGRTNYIEKFKSRITLSVDKSKSTVYLQMNSLRAEDTAVYYCARGTRAYHYWGQGTLVTVSS
VL: DIQLTQSPSSLSASVGDRVTITCRASDNLYRNLAWYQQKPGKAPKLLIYDATKLASGVPSRFSGSGSGTDYTLTISSLQPEDFATYYCQHFWGTPLTFGQGTKVEIKR
For B6, the Kd was 0.29 nM in assay [1]; 0.351 nM in assay [2]; 0.32 nM in assay [3]; 1.95 nM in assay [4]; 2.85 nM in assay [5]; 8.68 nM in assay [6]. For the same molecule, the values for the koff in assay [2] and in assay [5] were 0.00065 s⁻¹ and 0.00677 s⁻¹, respectively. Moreover, the kon in assay [2] is 1.85e+06 M⁻¹ s⁻¹; in assay [5], 2.38e+06 M⁻¹ s⁻¹.

B7: Fab0074 (Fab, V domains shown)
VH: EVQLVESGGGLVQPGGSLRLSCATSGYTFKSYWMHWVRQAPGKGLEWVAEINPTNGRTNYIEKFKSRITLSVDKSKSTVYLQMNSLRAEDTAVYYCARGTRAYHYWGQGTLVTVSS
VL: DIQLTQSPSSLSASVGDRVTITCRASDGLYSNLAWYQQKPGKAPKLLIYDAKNLASGVPSRFSGSGSGTDYTLTISSLQPEDFATYYCQHFWGTPLTFGQGTKVEIKR
Take B7: the Kd in assay [1] came out at 0.46 nM; in assay [2], 0.471 nM; in assay [3], 0.46 nM; in assay [4], 2.14 nM; in assay [5], 4.31 nM; in assay [6], 17.5 nM. In addition, the values for the dissociation rate constant (koff) in assay [2] and in assay [5] were 0.000782 s⁻¹ and 0.0105 s⁻¹, respectively. Besides, the kon is 1.66e+06 M⁻¹ s⁻¹ in assay [2] and 2.44e+06 M⁻¹ s⁻¹ in assay [5].

B8: Fab0071 (Fab, V domains shown)
VH: EVQLVESGGGLVQPGGSLRLSCATSGYTFNSYWMHWVRQAPGKGLEWVAEINPTNGRTNYIEKFKSRITLSVDKSKSTVYLQMNSLRAEDTAVYYCARGTRAYHYWGQGTLVTVSS
VL: DIQLTQSPSSLSASVGDRVTITCRASDGLYSNLAWYQQKPGKAPKLLIYDARNLASGVPSRFSGSGSGTDYTLTISSLQPEDFATYYCQHFWGTPLTFGQGTKVEIKR
In the case of B8, the dissociation constant Kd in assay [1] was found to be 0.45 nM; in assay [2] it was 0.553 nM; in assay [3], 0.43 nM; in assay [4] it was 0.74 nM; in assay [5], 8.13 nM; in assay [6], 53.3 nM. Further, the koff in assay [2] was 0.000865 s⁻¹; in assay [5], 0.0112 s⁻¹. Besides, the kon in assay [2] stood at 1.56e+06 M⁻¹ s⁻¹; in assay [5], 1.38e+06 M⁻¹ s⁻¹.
